To fix the notation:
B1: glmS ribozyme (parent)
chain: AUAAAAGCGCCAGAACUACAGAAAUGUAGUUGACGAGGAGGAGGUUUAUCGAAUUUUCGGCGGAUGCCUCCAAA

What all share (conditions): with glucosamine-6-phosphate
In data set [1] the parent is B1. In words: self-cleavage kobs at 160 uM GlcN6P; higher = faster cleavage; RNA array. The procedure, abridged: (§1)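 Weighted Michaelis–Menten fits across concentrations supplied kcat and KM, based on kobs from one- or two-exponential decay fits to normalised per-tile medians. The data came from barcoded ribozyme variants transcribed in situ by E. coli RNA polymerase on sequenced MiSeq chips and tracked at 37 °C by a hybridised Cy3 probe. Glucosamine-6-phosphate (40 μM to 10 mM) in HEPES/KCl/Mg(OAc)2 buffer was flowed in.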

Data set [2] covers variants of B1. In words: self-cleavage kobs at 640 uM GlcN6P; higher = faster cleavage; RNA array. The procedure, abridged: as §1
Variants of B1 are the subject of data set [3]. In words: self-cleavage kobs at 2500 uM GlcN6P; higher = faster cleavage; RNA array. The procedure, abridged:
as §1

Variants of B1 are the subject of data set [4]. The data set can be described thus: self-cleavage kobs at 10000 uM GlcN6P; higher = faster cleavage; RNA array. In short, it runs like this: as §1

± gives the standard error. Fewer inactive variants are shown than the library holds.

As to C11G G29A G37U, the “self-cleavage kobs at 160 uM GlcN6P” value with glucosamine-6-phosphate [1] was less than 1e-05 s⁻¹. Moreover, the “self-cleavage kobs at 640 uM GlcN6P” value with glucosamine-6-phosphate [2] was less than 1e-05 s⁻¹.

Regarding U55G U56G U69C, in the data set with glucosamine-6-phosphate [1], the “self-cleavage kobs at 160 uM GlcN6P” value worked out at 0.000134 ± 3.4e-05 s⁻¹. In the data set with glucosamine-6-phosphate [2], the “self-cleavage kobs at 640 uM GlcN6P” value came out at 0.000115 ± 2.6e-05 s⁻¹. Besides, in the data set with glucosamine-6-phosphate [3], the “self-cleavage kobs at 2500 uM GlcN6P” value turned out to be 0.000201 ± 4.3e-05 s⁻¹.

As to G13A G44U C61G U65A, in the data set with glucosamine-6-phosphate [1], the “self-cleavage kobs at 160 uM GlcN6P” value was less than 1e-05 s⁻¹. In addition, the “self-cleavage kobs at 640 uM GlcN6P” value in the data set with glucosamine-6-phosphate [2] is less than 1e-05 s⁻¹. Besides, in the data set with glucosamine-6-phosphate [3], the “self-cleavage kobs at 2500 uM GlcN6P” value is less than 1e-05 s⁻¹.

G40U G60A C70A: the “self-cleavage kobs at 160 uM GlcN6P” value with glucosamine-6-phosphate [1] is less than 1e-05 s⁻¹. For the same variant, the “self-cleavage kobs at 2500 uM GlcN6P” value in the data set with glucosamine-6-phosphate [3] was less than 1e-05 s⁻¹.

Turning to G29C G59U C68U, in the data set with glucosamine-6-phosphate [1], the “self-cleavage kobs at 160 uM GlcN6P” value turned out to be 0.000173 ± 8.1e-05 s⁻¹.

On to C8U A39C G44A U56G U65A, for which the “self-cleavage kobs at 160 uM GlcN6P” value in the data set with glucosamine-6-phosphate [1] was less than 1e-05 s⁻¹.

On to A42G U54A C67A, for which the “self-cleavage kobs at 160 uM GlcN6P” value with glucosamine-6-phosphate [1] was 0.000942 ± 0.00031 s⁻¹. For the same variant, the “self-cleavage kobs at 640 uM GlcN6P” value with glucosamine-6-phosphate [2] came to 0.0023 ± 0.001 s⁻¹. The “self-cleavage kobs at 2500 uM GlcN6P” value in the data set with glucosamine-6-phosphate [3] stood at 0.00449 ± 0.0011 s⁻¹.

For the variant A15C G60C C61U, the “self-cleavage kobs at 160 uM GlcN6P” value with glucosamine-6-phosphate [1] was less than 1e-05 s⁻¹.

Consider G7A G37C A64G, for which the “self-cleavage kobs at 160 uM GlcN6P” value in the data set with glucosamine-6-phosphate [1] is less than 1e-05 s⁻¹.

Take C34A A42G G66U: in the data set with glucosamine-6-phosphate [1], the “self-cleavage kobs at 160 uM GlcN6P” value was less than 1e-05 s⁻¹. Also, the “self-cleavage kobs at 640 uM GlcN6P” value with glucosamine-6-phosphate [2] was less than 1e-05 s⁻¹. The “self-cleavage kobs at 2500 uM GlcN6P” value in the data set with glucosamine-6-phosphate [3] is less than 1e-05 s⁻¹.

Turning to G7A A12C U57A, in the data set with glucosamine-6-phosphate [1], the “self-cleavage kobs at 160 uM GlcN6P” value was less than 1e-05 s⁻¹. Also, in the data set with glucosamine-6-phosphate [2], the “self-cleavage kobs at 640 uM GlcN6P” value was less than 1e-05 s⁻¹. The “self-cleavage kobs at 2500 uM GlcN6P” value in the data set with glucosamine-6-phosphate [3] is less than 1e-05 s⁻¹.

With A12G G41U C50U, the “self-cleavage kobs at 160 uM GlcN6P” value in the data set with glucosamine-6-phosphate [1] was less than 1e-05 s⁻¹. For the same variant, the “self-cleavage kobs at 640 uM GlcN6P” value with glucosamine-6-phosphate [2] is less than 1e-05 s⁻¹. The “self-cleavage kobs at 2500 uM GlcN6P” value with glucosamine-6-phosphate [3] was less than 1e-05 s⁻¹.

On to C10G G35U, for which the “self-cleavage kobs at 160 uM GlcN6P” value in the data set with glucosamine-6-phosphate [1] was less than 1e-05 s⁻¹. Further, in the data set with glucosamine-6-phosphate [2], the “self-cleavage kobs at 640 uM GlcN6P” value was less than 1e-05 s⁻¹. For the same variant, in the data set with glucosamine-6-phosphate [3], the “self-cleavage kobs at 2500 uM GlcN6P” value is less than 1e-05 s⁻¹.

For the variant C10G G35C, in the data set with glucosamine-6-phosphate [1], the “self-cleavage kobs at 160 uM GlcN6P” value was less than 1e-05 s⁻¹. Moreover, the “self-cleavage kobs at 640 uM GlcN6P” value with glucosamine-6-phosphate [2] was less than 1e-05 s⁻¹. Also, in the data set with glucosamine-6-phosphate [4], the “self-cleavage kobs at 10000 uM GlcN6P” value is less than 1e-05 s⁻¹.

Turning to U30A G35C C50G C68A C71U, the “self-cleavage kobs at 160 uM GlcN6P” value with glucosamine-6-phosphate [1] was 8.36e-05 ± 2.8e-05 s⁻¹. The “self-cleavage kobs at 640 uM GlcN6P” value in the data set with glucosamine-6-phosphate [2] was determined as 0.00197 ± 0.00057 s⁻¹. Further, in the data set with glucosamine-6-phosphate [3], the “self-cleavage kobs at 2500 uM GlcN6P” value worked out at 0.000671 ± 0.00025 s⁻¹.

G37A A39C U47C C71U: the “self-cleavage kobs at 160 uM GlcN6P” value with glucosamine-6-phosphate [1] was less than 1e-05 s⁻¹. The “self-cleavage kobs at 2500 uM GlcN6P” value with glucosamine-6-phosphate [3] stood at 3.22e-05 ± 1.4e-05 s⁻¹.

As for G7A C58A, the “self-cleavage kobs at 160 uM GlcN6P” value in the data set with glucosamine-6-phosphate [1] is less than 1e-05 s⁻¹. For the same variant, in the data set with glucosamine-6-phosphate [2], the “self-cleavage kobs at 640 uM GlcN6P” value is less than 1e-05 s⁻¹. The “self-cleavage kobs at 2500 uM GlcN6P” value with glucosamine-6-phosphate [3] was less than 1e-05 s⁻¹.

As to A12G U56C G60A, in the data set with glucosamine-6-phosphate [1], the “self-cleavage kobs at 160 uM GlcN6P” value is less than 1e-05 s⁻¹. In the data set with glucosamine-6-phosphate [2], the “self-cleavage kobs at 640 uM GlcN6P” value was less than 1e-05 s⁻¹. The “self-cleavage kobs at 2500 uM GlcN6P” value with glucosamine-6-phosphate [3] is less than 1e-05 s⁻¹.

For the variant A52C C58A, the “self-cleavage kobs at 160 uM GlcN6P” value in the data set with glucosamine-6-phosphate [1] is less than 1e-05 s⁻¹. In addition, the “self-cleavage kobs at 640 uM GlcN6P” value with glucosamine-6-phosphate [2] was less than 1e-05 s⁻¹. Also, in the data set with glucosamine-6-phosphate [4], the “self-cleavage kobs at 10000 uM GlcN6P” value was less than 1e-05 s⁻¹.

As for U57A G62C, the “self-cleavage kobs at 160 uM GlcN6P” value with glucosamine-6-phosphate [1] was less than 1e-05 s⁻¹. Further, the “self-cleavage kobs at 640 uM GlcN6P” value with glucosamine-6-phosphate [2] is less than 1e-05 s⁻¹. For the same variant, the “self-cleavage kobs at 10000 uM GlcN6P” value with glucosamine-6-phosphate [4] was less than 1e-05 s⁻¹.

On to G9C G38A C70U, for which, in the data set with glucosamine-6-phosphate [1], the “self-cleavage kobs at 160 uM GlcN6P” value was less than 1e-05 s⁻¹. For the same variant, the “self-cleavage kobs at 640 uM GlcN6P” value with glucosamine-6-phosphate [2] was less than 1e-05 s⁻¹. Moreover, the “self-cleavage kobs at 2500 uM GlcN6P” value in the data set with glucosamine-6-phosphate [3] was less than 1e-05 s⁻¹.

On to G29C U69A, for which the “self-cleavage kobs at 160 uM GlcN6P” value with glucosamine-6-phosphate [1] stood at 4.08e-05 ± 1.4e-05 s⁻¹. For the same variant, in the data set with glucosamine-6-phosphate [2], the “self-cleavage kobs at 640 uM GlcN6P” value came out at 8.01e-05 ± 1.7e-05 s⁻¹. Further, the “self-cleavage kobs at 2500 uM GlcN6P” value with glucosamine-6-phosphate [3] was found to be 2.32e-05 ± 1e-05 s⁻¹.

With A15G C16G A42G C67G, the “self-cleavage kobs at 160 uM GlcN6P” value with glucosamine-6-phosphate [1] turned out to be 7.28e-05 ± 3.4e-05 s⁻¹. Besides, the “self-cleavage kobs at 640 uM GlcN6P” value with glucosamine-6-phosphate [2] was determined as 0.000348 ± 6.7e-05 s⁻¹. In addition, the “self-cleavage kobs at 2500 uM GlcN6P” value with glucosamine-6-phosphate [3] was 0.000115 ± 3.5e-05 s⁻¹. In the data set with glucosamine-6-phosphate [4], the “self-cleavage kobs at 10000 uM GlcN6P” value was found to be 0.000521 ± 0.00022 s⁻¹.

For the variant C10G G66C, the “self-cleavage kobs at 160 uM GlcN6P” value with glucosamine-6-phosphate [1] was less than 1e-05 s⁻¹. In the data set with glucosamine-6-phosphate [2], the “self-cleavage kobs at 640 uM GlcN6P” value was less than 1e-05 s⁻¹. For the same variant, the “self-cleavage kobs at 10000 uM GlcN6P” value in the data set with glucosamine-6-phosphate [4] is less than 1e-05 s⁻¹.
